B1: MutS (natural protein, Bacillus subtilis)
chain: GPGSMAGYTPMIQQYLKIKAEHQDAFLFFRLGDFYEMFFEDAKKASQELEITLTSRDGGAAEKIPMCGVPYHSASAYIEQLIKKGYKVAICEQTEDPKAAKGVVKREVVQLITPGTVMDGKGIHESENNFIASVSACSNGYGLALSDLTTGENLAVLIERLEDVISEIYSVGAREIVVSGSLDADTVAQLRERCGATISIEDGETDEHVTIIEHLNNEDITKTFLRLYTYLKRTQKRSLDHLQPVQVYELEEAMKIDLYSKRNLELTETIRSKNKKGSLLWLLDETKTAMGGRLLKQWIDRPLIRVNQIEERQEMVETLMSHFFEREDLRERLKEVYDLERLAGRVAFGNVNARDLIQLKESLKQVPGIKQLVASLAHDKAKERAKRIDPCGDVLELLEEALYENPPLSVKEGNLIKDGYNQKLDEYRDASRNGKDWIARLEQQEREYTGIRSLKVGFNKVFGYYIEVTKANLHLLEEGRYERKQTLTNAERYITPELKEKEALILEAENNICELEYELFTELREKVKQYIPRLQQLAKQMSELDALQCFATISENRHYTKPEFSKDEVEVIEGRHPVVEKVMDSQEYVPNNCMMGDNRQMLLITGPNMSGKSTYMRQIALISIMAQIGCFVPAKKAVLPIFDQIFTRIGAADDLISGQSTFMVEMLEAKNAIVNATKNSLILFDEIGRGTSTYDGMALAQAIIEYVHDHIGAKTLFSTHYHELTVLEDKLPQLKNVHVRAEEYNGTVVFLHQIKEGAADKSYGIHVAQLAELPGDLIARAQDILKELEHSGNKPEVPVQKPQVKEEPAQLSFFDEAEKPAETPKLSKKEKQVIDAFKSLNILDMTPLEAMNEMYKLQKKLH
B2: His6-SSB (natural protein, Bacillus subtilis, UniProt P37455 1-172, looked up)
chain: MLNRVVLVGRLTKDPELRYTPNGAAVATFTLAVNRTFTNQSGEREADFINCVTWRRQAENVANFLKKGSLAGVDGRLQTRNYENQQGQRVFVTEVQAESVQFLEPKNGGGSGSGGYNEGNSGGGQYFGGGQNDNPFGGNQNNQRRNQGNSFNDDPFANDGKPIDISDDDLPF

Target: T1, DnaE (Bacillus subtilis, UniProt O34623 1-1115)
T1 sequence: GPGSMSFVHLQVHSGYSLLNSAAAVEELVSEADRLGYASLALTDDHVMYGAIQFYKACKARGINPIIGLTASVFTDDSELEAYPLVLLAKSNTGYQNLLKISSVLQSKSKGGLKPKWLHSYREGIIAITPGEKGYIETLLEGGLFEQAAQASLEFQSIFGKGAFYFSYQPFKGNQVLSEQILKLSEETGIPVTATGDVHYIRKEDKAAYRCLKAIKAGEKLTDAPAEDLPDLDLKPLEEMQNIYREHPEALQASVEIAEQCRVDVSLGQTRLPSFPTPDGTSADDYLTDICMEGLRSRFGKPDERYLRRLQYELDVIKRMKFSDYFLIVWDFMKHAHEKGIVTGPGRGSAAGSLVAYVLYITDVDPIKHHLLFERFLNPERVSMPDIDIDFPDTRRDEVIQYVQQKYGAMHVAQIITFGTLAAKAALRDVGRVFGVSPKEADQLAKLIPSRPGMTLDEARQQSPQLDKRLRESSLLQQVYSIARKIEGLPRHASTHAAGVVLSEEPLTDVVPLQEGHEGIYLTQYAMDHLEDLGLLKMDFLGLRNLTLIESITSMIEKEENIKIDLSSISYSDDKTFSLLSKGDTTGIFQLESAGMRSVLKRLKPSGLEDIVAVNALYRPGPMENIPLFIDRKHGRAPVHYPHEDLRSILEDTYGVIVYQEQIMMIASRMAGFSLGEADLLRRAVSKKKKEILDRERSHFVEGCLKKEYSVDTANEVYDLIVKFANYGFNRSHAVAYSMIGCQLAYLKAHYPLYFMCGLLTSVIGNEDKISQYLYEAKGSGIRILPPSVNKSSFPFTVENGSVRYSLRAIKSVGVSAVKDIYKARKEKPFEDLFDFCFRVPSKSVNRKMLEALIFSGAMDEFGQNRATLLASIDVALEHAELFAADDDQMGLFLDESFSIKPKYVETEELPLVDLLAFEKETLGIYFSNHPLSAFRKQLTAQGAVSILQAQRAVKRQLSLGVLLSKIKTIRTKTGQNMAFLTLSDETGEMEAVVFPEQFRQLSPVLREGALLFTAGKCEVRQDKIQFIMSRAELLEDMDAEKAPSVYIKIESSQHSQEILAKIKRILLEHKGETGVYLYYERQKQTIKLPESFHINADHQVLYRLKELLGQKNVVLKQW
Assay: far-Western, overlay or dot blot

| Binder | binding result |
| --- | --- |
| B1 | binds |
| B2 | binds |
